Our source for the protein production values is a protein production outcome set (Wang et al. 2014).
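Also: failed if final PepcDB status was selected cloned or expressed and not failed if soluble or beyond.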

The nature of the data set: label from the status in PepcDB records.
Take “MFIERLVALLLLFAGEFAYLRIADRFNIIDRPNQRSSHKKNVLRGGGIIFLLGVWMYAFLNTTGYPLFIGGMTLIASVAFIDDVCSLSPRFRFFVQFVAMFLLLQEAGMLVENKVWFLLPTMILGVCIINAYNFMDGINGMTGAFSLMVLFTFWLLNREMAFIDATLIELLMISALVFCFFNFRNQAICFAGDVGSVGMAYCVIFILLKLVLFTGNVTYLLFLVVYGIDTVLTIFHRLLLHENLLQPHRKHLFQLLANEGGHSHVTVSITYVLLQLAISLGYIYLPIDKWLYSVIVTIGLVTAYLIIERKLYPKHKEYLKSLSCAVMDEGYSEKCLRNEN”: the protein production result was “failed”.

In the case of “KESLQVTLYRDNHAWCPYCQKVWLWLEEKQIPYRIKKVTMFCYGEKEDWYKKLVPSGMLPALELDGRFYTESDDILIALEKAFGPLLWAMEDPLVLPLRKLERLLFRAWCNWLCYPAM”, the protein production entry was “failed”.

As to “MVNILSLFTLAALWGGSFLFVRIAANPLGPAVLIEVRVAFAALTLLVVSFFLKKSLRFMSNIKHFLILGLFNSALPFLLFAYSAQVLNVSTLAVLNSTAPIWGAVIGAIWTRTRLSKDVIFGLILGMIGVSVLVGWEAINIGDEAIIPIITALIGAFSYGVATNYAKNAPSVEPFNNAHGSMWASVLLVLPLVPFMPVREEVTSDIIAAVFALGAVCTGLAYLLYFRLIKELGASSALTVTFIIPVFGILWGYLFLGETVGVNAIIGTILVVIGTMFVTGFASKFMSKKCV”, the protein production entry was “failed”.

Turning to “MANKTIAQTGSATSPTTNKSGTYVEVPLQDTIPIIFVPGIMGSNIFNTVLGKPVWMIGNGISGQVKTLTKQMGKTPAELQTELDPLNTRVDTSGDIKVDRRLKLTEKTLRERYWGTVHWDSYGGILTYLQMVLNNVDLNEKPIYTTGLGGGYAAVQQMKQQEAVYEWKSLLNQTESSKWFPQQSFVPINQQEIEHLKKFHFPVYAMGYNWLQSSENGAALVAQKLDKIKQEYGARFHKFIIVTHSMGGLLTRRLVQLCSADIAGVV”, the protein production entry was “failed”.

In the case of “MQIPIYSKLKTKLESKGIDNISSGQIAWFVCSLILALVTYIILTFHYIYISYGKYDKNLFLLIFDRNAIELFVIVYSCIMFNLLYIYNAIPLVLSAVFIFLAFYFSSLSLFIVGCCGIGVFFLISIFKRKFMFSVLLFALGYTCTLFFFYGLATY”, the protein production result was “failed”.

Regarding “MNNSINHKFHHISRAEYQELLAVSRGDAVADYIIDNVSILDLINGGEISGPIVIKGRYIAGVGAEYTDAPALQRIDARGATAVPGFIDAHLHIESSMMTPVTFETATLPRGLTTVICDPHEIVNVMGEAGFAWFARCAEQARQNQYLQVSSCVPALEGCDVNGASFTLEQMLAWRDHPQVTGLAEMMDYPGVISGQNALLDKLDAFRHLTLDGHCPGLGGKELNAYITAGIENCHESYQLEEGRRKLQLGMSLMIREGSAARNLNALAPLINEFNSPQCMLCTDDRNPWEIAHEGHIDALIRRLIEQHNVPLHVAYRVASWSTARHFGLNHLGLLAPGKQADIVLLSDARKVTVQQVLVKGEPIDAQTLQAEESARLAQSAPPYGNTIARQPVSASDFALQFTPGKRYRVIDVIHNELITHSHSSVYSENGFDRDDVSFIAVLERYGQRLAPACGLLGGFGLNEGALAATVSHDSHNIVVIGRSAEEMALAVNQVIQDGGGLCVVRNGQVQSHLPLPIAGLMSTDTAQSLAEQIDALKAAARECGPLPDEPFIQMAFLSLPVIPALKLTSQGLFDGEKFAFTTLEVTELEHHHHHH”, the protein production entry is on record as “not failed”.

“MYSRLPTTYELIEALQASPQAGPAAESRLATVLWAGFVLALVPMLVAGGALVWWHRVLAQVPPAWLPQVFHVLLAVCGVFYVGAWVIRLLDRRAALQHPLRWLTRRLDTQSEVENALLLRLGRIPALQLRARQRRVVLQARLWDASARTMALVLAIGPAAVILADGVAVMAPGGVPALVAIYGAVLVAGCALALFAQLQCSAPLRRLAHVLGEAAEINEAVNRQRQP”: the protein production entry is recorded as “failed”.

For the sequence “MANIDLHFHSRTSDGALTPTEVIDRAAARAPALLALTDHDCTGGLAEAAAAAARRGIPFLNGVEVSVSWGRHTVHIVGLGIDPAEPALAAGLKSIREGRLERARQMGASLEAAGIAGCFDGAMRWCDNPEMISRTHFARHLVDSGAVKDMRTVFRKYLTPGKPGYVSHQWASLEDAVGWIVGAGGMAVIAHPGRYDMGRTLIERLILDFQAAGGQGIEVASGSHSLDDMHKFALHADRHGLYASSGSDFHAPGEGGRDVGHTEDLPPICRPIWRELEARILRP”, the protein production entry was “failed”.

Turning to “PEDAINDESDDEDKVDKDDRLPQSDKDKRIVPENEYSDSEDEGEGGRRDNRSYKGQRKRPRLDKDTNSNKASSETSSEIKDEKEKGDGADGEESTASNTNS”, the protein production result is “failed”.

With “MPLPKSLKYGDTIGIYSPSSPVTYTSPKRFERAKSYLLQKGFHILEGSLTGRYDYYRSGSIQERAKELNALIRNPNVSCIMSTIGGMNSNSLLPYIDYDAFQNNPKIMIGYSDATALLLGIYAKTGIPTFYGPALVPSFGEFEPFVDDTYKYFLETLLHDQALPYNIKQPLFWSDEFINWEEKTKEKELRPNNWISVTNGQATGRVIGGNLNTIQGIWGSPYMPCIQEGDILFIEDSSKDAATIERSFSFLKINGVFDKVSGIILGKHEQFDDCGTNRKPYEILLEVLQNQRIPLLADFDCCHTHPMITMPIGVQVKMDATNKTIHILEKWKI”, the protein production result is recorded as “not failed”.

As for “MLTVRNHPGVMSHICGLFARRAFNVDGILCMPLAGGEESRIWLQVLDDQRLQQMISQLEKLEDVLQVCRFDSEMPIFDQVEDLVAHQR”, the protein production entry is “not failed”.

As to “MKYIINHSNDTAFNIALEEYAFKHLLDEDQIFLLWINKPSIIVGRHQNTIEEINRDYVRENGIEVVRRISGGGAVYHDLNNLNYTIISKEDENKAFDFKSFSTPVINTLAQLGVKAEFTGRNDLEIDGKKFCGNAQAYINGRIMHHGCLLFDVDLSVLANALKVSKDKFESKGVKSVRARVTNIINELPKKITVEKFRDLLLEYMKKEYPEMTEYVFSEEELAEINRIKDTKFGTWDWNYGKSPEFNVRRGIKFTSGKVEVFANVTESKIQDIKIYGDFFGIEDVAAVEDVLRGVKYEREDVLKALKTIDITRYFAGISREEIAEAVVG”, the protein production result is listed as “not failed”.

With “MTLTALFAAFCGLYLLIGGAWLVVLGGSWYYPIAGLVMLGVTVMLFRGKRAALWLYAALLLATMIWGVWEVGFDFWALTPRSDILVFFGIWLILPFVWRRLPVPSAGAVGALVVALLISGGMLTWAGFNDPQEVNGTLSADATPAAPISTVADGDWPAYGRNQEGQRFSPLKQINADNVKNLKEAWVFRTGDLKQPNDPGEITNEVTPIKVGDTLFLCTAHQRLFALDAATGKEKWHFDPQLNADPSFQHVTCRGVSYHEAKADNAPADVVADCPRRIILPVNDGRLFAVNADNGKLCETFANKGILNLQTNMPVTTPGMYEPTSPPIITDKTIVIAGAVTDNFSTREPSGVIRGFDVNTGKLLWAFDPGAKDPNAIPSDEHHFTLNSPNSWAPAAYDAKLDLVYLPMGVTTPDIWGGNRTPEQERYASSIVALNATTGKLAWSYQTVHHDLWDMDMPSQPTLADIEVNGKTVPVIYAPAKTGNIFVLDRRNGELVVPAPEKPVPQGAAKGDYVTKTQPFSDLSFRPKKDLTGADMWGATMFDQLVCRVIFHQLRYEGIFTPPSEQGTLVFPGNLGMFEWGGISVDPNRQVAIANPMALPFVSKLIPRGPGNPMEPPKDAKGSGTESGVQPQYGVPYGVTLNPFLSPFGLPCKQPAWGYISALDLKTNEVVWKKRIGTPQDSLPFPMPVKLPFTMGMPMLGGPISTAGNVLFIGATADNYLRAYNMSNGEKLWEARLPAGGQATPMTYEVNGKQYVVISAGGHGSFGTKMGDYIVAYALPDDAK”, the protein production entry is reported as “failed”.

“MAGKRKSRRGFGRVRKLPSGRFQARYPGPDGVLRPADRTFATTTDADRWLMRKRIEIEEGCWLDPAEGQTTVRDWAARWLAAVSPQLKHKTQASYRSLINSLINPVLGDRELSSLRPITVTEWVGAMRTKGLSASRIRQAYRVLSQIMRSAVDNDMIPQTPCRGVRLPRMPQTEPHILTPLEASRIVKGATKPHDLLIALLAYAGLRVGEAFALRRVDVDVSGGFVLVDENLAEANGVLVFDTPKSHQKRLLRVGPSLAKRLGRHLETLPGGDDALLFTTPGGKPLRYNQWRKAYFDPAVSAAGLTDVTPHDLRASHGTWVADRYGVMTAAHRLGHSNASVTTRHYARPVAGRDDQVAEAADSWLSGSEDNDDGSAAVPA”: the protein production result was “failed”.

“MTDNNQNNENHENSSENSKADEMRAGAFERFTNRKKRFRENAQKNAEYSNHEASSHHKKEHRPNKKPNNHHKQKHAKTRNYAQEELDSNKVEGVTEILHVNERGTLGFHKELKKGVEANNKIQVEHLNPHYKMNLNSKASVKITPLGGLGEIGGNMMVIETPKSAIVIDAGMSFPKEGLFGVDILIPDFSYLHQIKDKIAGIIITHAHEDHIGATPYLFKELQFPLYGTPLSLGLIGSKFDEHGLKKYRSYFKIVEKRCPISVGEFIIEWIHITHSIIDSSALAIQTKAGTIIHTGDFKIDHTPVDNLPTDLYRLAHYGEKGVMLLLSDSTNSHKSGTTPSESTIAPAFDTLFKEAQGRVIMSTFSSNIHRVYQAIQYGIKYNRKIAVIGRSMEKNLDIARELGYIHLPYQSFIEANEVAKYPDNEILIVTTGSQGETMSALYRMATDEHRHISIKPNDLVIISAKAIPGNEASVSAVLNFLIKKEAKVAYQEFDNIHVSGHAAQEEQKLMLRLIKPKFFLPVHGEYNHVARHKQTAISCGVPEKNIYLMEDGDQVEVGPAFIKKVGTIKSGKSYVDNQSNLSIDTSIVQQREEVASAGVFVATIFVNKNKQALLESSQFSSLGLVGFKDEKPLIKEIQGGLEVLLKSSNAEILNNPKKLEDHTRNFIRKALFKKFRKYPAIICHAHSF”: the protein production entry was “failed”.

With “MLDKGGGRGKLSSPERFREWTRKTMAKQDELVFVPLGGVGEIGMNLALYGYGPESKRQWIMVDCGVTFAGPDLPGVDLVLPDISYIAEQKKNLKGIIITHAHEDHYGAMNDLWPGLNVPVYASPFTAGMLEAKRAYEGTRAEIPVTIFKAGDRINVGPFEIEAVGVNHSIPEPMSLIIRTPLGNVIHTGDWKIDEAPSLGPLTDEARFRAIGEEGVLALMCDSTNALRDGVSPSEHEVSEGLRQIIESAEGRVAVTTFSSNVGRIRSIAQAAEAAGREVLLLGSSLKRVVNVSQDLGIMEGIKPFLAEDEYGYIPRDRVVVILTGSQGEPRAALAKLSRDEMRNVALASGDTVVFSSRAIPGNEKAIIEIKNGLIEQGVHIVTDNEALVHVSGHPRRNELLRMYEWTKPQILVPVHGEAAHLVAQKELAEQAGISQVPKVRNGNVLRLAPGPAEVINDVPHGRVFKDGNLVGDMDEMGISNRRKLSFAGHVAVNVVLDSRYDFLGDPDVVPFGLPEFDDEDEAMEDTLYDAVLGAVESIPRARRKDLALLRESVRRAVRAAANQSWGKKPIVTVFVTKV”, the protein production result is listed as “failed”.

“DETYYTVDLEQKLEEKFGLEEAIVVATHDMSEEEALNFLAKEAAYTLSKRIAKVNTLGISWGKTIRKFANEFPYIPHKDLTIIPLIGGMGSSDIDLHSNQICYDLKKKMQCHSKYLYAPALVEDTEMKADLSKNKYINEVLEEGKTVDMAIVGVSSPYNQSTMEEIGYITPEDIEELRYKDVVGDINSRFFTANGEEANTQINTHVIGLSLEELKKIPTVVALANGLQKKDALVSALNAGLIDVIVITDRMAEYILQKND”: the protein production entry is “failed”.

With “MTAEQLIEKYKNPAIIGLGVIVALIAAFVFYKYNQSENNTVAQEEMYKAVFYFEQDSLELALKGDEAKGIRGLQEVADEYSGTKAGKLAAFYTGIIYLKQAKFQESIDYLEKFSSNEGILQARSWAAMGDAYSELNDLENAIKYYKKAADHKGNEQITPTYLMKLGLAYELNNNWKDASDAYDKIITDYPKSQDVADAKKYKAKAQAALSASE”, the protein production entry is “failed”.
